T1: CAPRIN-1 protein expressed on the membrane surface of human cancer cells (human, UniProt Q14444 2-709)
T1 sequence (looked up): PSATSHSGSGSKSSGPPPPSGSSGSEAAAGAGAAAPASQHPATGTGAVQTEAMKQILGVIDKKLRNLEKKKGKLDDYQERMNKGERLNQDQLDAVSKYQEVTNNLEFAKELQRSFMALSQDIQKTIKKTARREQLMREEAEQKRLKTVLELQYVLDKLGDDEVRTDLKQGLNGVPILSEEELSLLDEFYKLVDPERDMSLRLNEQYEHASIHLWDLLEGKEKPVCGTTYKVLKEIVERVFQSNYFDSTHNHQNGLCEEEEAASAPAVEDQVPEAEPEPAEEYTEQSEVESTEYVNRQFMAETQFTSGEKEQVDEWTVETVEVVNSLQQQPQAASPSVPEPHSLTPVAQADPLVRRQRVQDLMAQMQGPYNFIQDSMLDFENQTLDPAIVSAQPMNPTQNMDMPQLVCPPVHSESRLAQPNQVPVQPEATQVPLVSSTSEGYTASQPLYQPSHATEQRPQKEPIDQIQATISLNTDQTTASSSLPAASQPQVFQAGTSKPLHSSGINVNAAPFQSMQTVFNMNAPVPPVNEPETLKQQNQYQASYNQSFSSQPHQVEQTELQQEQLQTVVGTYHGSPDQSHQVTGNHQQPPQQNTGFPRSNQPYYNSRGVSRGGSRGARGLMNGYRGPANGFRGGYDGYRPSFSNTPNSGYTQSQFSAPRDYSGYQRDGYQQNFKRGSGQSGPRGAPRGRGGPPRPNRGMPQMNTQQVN

B1: human-rabbit chimeric anti-CAPRIN-1 antibody (antibody, V domains shown)
VH: QSLEESGGRLVTPGTPLTLTCTASGFSLSSHSLGWVRQAPGKGLEWIGDIRSGGSAYYANWAKGRFTISRTSTTVALKMTSLTTEDTATYFCTRTNGPSDLTNRLDLWGQGTLVTVSS
VL: QVLTQTPSSVSAAVGGTVTINCQASQSLYNNENLAWFQQKPGQPPKRLIYGASTLASGVSSRFKGSGSGTQFTLTIGDVQCDDAAIYYCLGEFSCGSADCFAFGGGTEVVVK
B2: humanized antibody #8 (antibody, V domains shown)
VH: QSLVESGGGLVQPGGSLRLSCAASGFSLSSHSLGWVRQAPGKGLEWIGDIRSGGSAYYANWAKGRFTISRTSSKNTVYLQMNSLRAEDTAVYFCTRTNGPSDLTNRLDLWGQGTLVTVSS
VL: QVLTQSPSSLSASVGDRVTINCQASQSLYNNENLAWFQQKPGKVPKRLIYGASTLASGVSSRFSGSGSGTEFTLTISSLQCEDFAIYYCLGEFSCGSADCFAFGGGTKVEIK

Biological target: T1, CAPRIN-1 protein expressed on the …
Assay: cell-based or functional assay

Binder | ADCC cytotoxic activity (51Cr release) on 22Rv1 [%] | ADCC cytotoxic activity (51Cr release) on A-673 [%] | ADCC cytotoxic activity (51Cr release) on BT-474 [%] | ADCC cytotoxic activity (51Cr release) on Caki-2 [%] | ADCC cytotoxic activity (51Cr release) on FaDu [%] | ADCC cytotoxic activity (51Cr release) on G-361 [%] | ADCC cytotoxic activity (51Cr release) on HEC-1-A [%] | ADCC cytotoxic activity (51Cr release) on HT-29 [%] | ADCC cytotoxic activity (51Cr release) on HT-1080 [%] | ADCC cytotoxic activity (51Cr release) on HT-1376 [%] | ADCC cytotoxic activity (51Cr release) on Hep3B [%] | ADCC cytotoxic activity (51Cr release) on IM-9 [%] | ADCC cytotoxic activity (51Cr release) on MDA-MB-361 [%] | ADCC cytotoxic activity (51Cr release) on NCI-H2452 [%] | ADCC cytotoxic activity (51Cr release) on NCI-N87 [%] | ADCC cytotoxic activity (51Cr release) on NT/D1 [%] | ADCC cytotoxic activity (51Cr release) on OCI-AML5 [%] | ADCC cytotoxic activity (51Cr release) on OE33 [%] | ADCC cytotoxic activity (51Cr release) on Panc10.5 [%] | ADCC cytotoxic activity (51Cr release) on QG56 [%] | other results
B1 | ≥ 38 | ≥ 40 | ≥ 46 | ≥ 26 | ≥ 35 | ≥ 15 | ≥ 40 | ≥ 35 | ≥ 20 | ≥ 28 | ≥ 21 | ≥ 27 | ≥ 40 | ≥ 31 | ≥ 34 | ≥ 25 | ≥ 15 | ≥ 30 | ≥ 24 | ≥ 38 | ADCC cytotoxic activity (51Cr release) on RD-ES: ≥ 31%; ADCC cytotoxic activity (51Cr release) on RPM11666: ≥ 30%; ADCC cytotoxic activity (51Cr release) on Ramos: ≥ 15%; ADCC cytotoxic activity (51Cr release) on SKOV3: ≥ 27%; ADCC cytotoxic activity (51Cr release) on T24: ≥ 30%; ADCC cytotoxic activity (51Cr release) on TGBC14TKB: ≥ 25%; ADCC cytotoxic activity (51Cr release) on TT: ≥ 30%; ADCC cytotoxic activity (51Cr release) on U-87MG: ≥ 24%
B2 | ≥ 38 | ≥ 40 | ≥ 46 | ≥ 26 | ≥ 35 | ≥ 15 | ≥ 40 | ≥ 35 | ≥ 20 | ≥ 28 | ≥ 21 | ≥ 27 | ≥ 40 | ≥ 31 | ≥ 34 | ≥ 25 | ≥ 15 | ≥ 30 | ≥ 24 | ≥ 38 | ADCC cytotoxic activity (51Cr release) on RD-ES: ≥ 31%; ADCC cytotoxic activity (51Cr release) on RPM11666: ≥ 30%; ADCC cytotoxic activity (51Cr release) on Ramos: ≥ 15%; ADCC cytotoxic activity (51Cr release) on SKOV3: ≥ 27%; ADCC cytotoxic activity (51Cr release) on T24: ≥ 30%; ADCC cytotoxic activity (51Cr release) on TGBC14TKB: ≥ 25%; ADCC cytotoxic activity (51Cr release) on TT: ≥ 30%; ADCC cytotoxic activity (51Cr release) on U-87MG: ≥ 24%
